Values joined by “and” are separate entries in the source; they are usually repeats but may differ in a detail not shown here. Equal entries are not always repeated.
Target: SARS-CoV-2 S glycoprotein, prefusion S ectodomain (trimeric SARS-CoV-2 spike) (SARS-CoV-2 | bacteriophage T4) (UniProt P0DTC2)
Assay: SPR; Biacore T200; SARS-CoV-2 S (50 ug/ml) captured on Ni2+-loaded NTA chip; ACE2 (His-Tag removed) as analyte, 200 nM to 3.125 nM in triplicate, 50 uL/min, HBS P+ buffer; association 300 s, dissociation 600 s; 1:1 binding model

WT soluble ACE2 treated with alpha2-3,6,8 sialidase (from UniProt Q9BYF1 18-626) (domain or fragment)
decrease of KD against WT ACE2: 30 % lower

soluble ACE2 expressed in the presence of 20 uM kifunensine (Kif ACE2) (from UniProt Q9BYF1 18-626) (domain or fragment)
increase of KD against WT ACE2: 50%

soluble recombinant ACE2 ectodomain, un-engineered (wild-type form, WT) (from UniProt Q9BYF1 18-626) (domain or fragment)
Kd: 50 to 100 nM and 76 nM

— publication PMC7744274
